Assay results as given in patent publication US20250154283A1 (published 2025).

T1: biotinylated human VWF cysteine knot (CK) domain construct (human, biotin on the in vitro biotinylation tag (residue not stated); one N-glycan)
T1 construct: Disulfide-linked homodimer; also called biotinylated human VWF CK domain; human VWF CK domain construct
T1 chain: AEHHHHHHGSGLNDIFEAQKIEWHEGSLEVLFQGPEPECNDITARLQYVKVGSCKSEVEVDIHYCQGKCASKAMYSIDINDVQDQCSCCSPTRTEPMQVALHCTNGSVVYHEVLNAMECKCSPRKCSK


Molecular target: T1, biotinylated human VWF cysteine knot …
Assay: SPR, scFv captured on anti-SV5, pH 7.4
Description: Briefly, a sensor chip was activated and coupled with an anti-SV5 mouse monoclonal antibody using amine coupling. The soluble scFvs in crude yeast supernatants were printed on the anti-SV5 lawn. […] From the measured association (kₒₙ) and dissociation (koff) rate constants, an apparent equilibrium dissociation constant (Kd=koff/kₒₙ) was estimated. Due to the dimeric state of the CK construct and consequent possibility for simultaneous binding of captured scFv to both monomers in the CK dimer, the SPR setup was expected to overestimate the binding affinity.

Row | binding result | Binder
1 | binds | 76_Lib4_scFv (scFv, not shown: small tags and cut ends) scFv: QVQLQESGPGLVKPSQTLSLTCTVSGVSISNHYWSWIRQPPGKGLEWIGYIDESGSTDYNPSLKSRVTMSVDTSKNQFSLKVNSVTAADTAVYYCARVSWGYYAMDVWGQGTTVTVSSSGGSTITSYNVYYTKLSSSGTEIVMTQSPATLSLSPGERATLSCRASQGVSGHLAWYQQKPGQAPRLLIYETSKRATGIPARFSGSGSGTDFTLTISSLEPEDFAVYYCQQYNDYPLGFGGGTKVEIK
2 | binds | 4761_Lib8_scFv (scFv, not shown: small tags and cut ends) scFv: EVQLVESGGGLVQPGRSLRLSCAASGFTFSSDTMHWVRQAPGKGLEWVSAISSSGDHTDYADSVEGRFTISRDNAKNSLYLQMNSLRAEDTAVYYCAREGLRGYYFDYWGQGTLVTVSSSGGSTITSYNVYYTKLSSSGTDIQMTQSPSSLSASVGDRVTITCRASQGISGHLAWYQQKPGKAPKLLIYAASALQSGVPSRFSGSGSGTDFTLTISSLQPEDVATYYCQQSHSLPWTFGGGTKVEIK
3 | binds | Lib1_P1_A6_scFv (scFv, not shown: small tags and cut ends) scFv: QVQLVQSGAEVKKPGASVKVSCKVSGSTFSNYAIHWVRQAPGKGLEWMGGIVPLSGTAIYAQKFQGRVTMTEDTSTDTAYMELSSLKSEDTAVYYCARDQGESSGWYAIYYGMDVWGQGTTVTVSSSGGSTITSYNVYYTKLSSSGTDIQMTQSPSSVSASVGDRVTITCRASQGIGTWLAWYQQKPGKAPKLLIYGSSSRASGVPSRFSGSGSGTDFTLTISSLQPEDFANYYCQQSYGKPTFGGGTKVEIK
4 | binds | 5662_Lib8_scFv (scFv, not shown: small tags and cut ends) scFv: EVQLVESGGGLVQPGRSLRLSCAASGFNFHNYDMHWVRQAPGKGLEWVSAIDISGQSTDYADSVEGRFTISRDNAKNSLYLQMNSLRAEDTAVYYCAREGWYGGVFDYWGQGTLVTVSSSGGSTITSYNVYYTKLSSSGTDIQMTQSPSSLSASVGDRVTITCRASQDIANWLAWYQQKPGKAPKLLIYGASESGVGVPSRFSGSGSGTDFTLTISSLQPEDVATYYCQQSLTMKTFGGGTKVEIK
5 | binds | Lib1_P1_F10_scFv (scFv, not shown: small tags and cut ends) scFv: QVQLVQSGAEVKKPGASVKVSCKVSGYTFSSSGIHWVRQAPGKGLEWMGGIFPNFGTAIYAQKFQGRVTMTEDTSTDTAYMELSSLKSEDTAVYYCARESDFWSGSFTNWGQGTLVTVSSSGGSTITSYNVYYTKLSSSGTDIQMTQSPSSVSASVGDRVTITCRASRSIGNWLAWYQQKPGKAPKLLIYDAFNRASGVPSRFSGSGSGTDFTLTISSLQPEDFANYYCQQSYSTLPRYSFGGGTKVEIK
6 | binds | 5802_Lib4_scFv (scFv, not shown: small tags and cut ends) scFv: QVQLQESGPGLVKPSQTLSLTCTVSGYSISSGDYHWSWIRQPPGKGLEWIGYINPSGSADYNPSLKSRVTMSVDTSKNQFSLKVNSVTAADTAVYYCARDGVAATYYYYYGMDVWGQGTTVTVSSSGGSTITSYNVYYTKLSSSGTEIVMTQSPATLSLSPGERATLSCRASHSIGSNLAWYQQKPGQAPRLLIYDATTRATGIPARFSGSGSGTDFTLTISSLEPEDFAVYYCQQAYSFPLTFGGGTKVEIK
7 | binds | 4675_Lib4_scFv (scFv, not shown: small tags and cut ends) scFv: QVQLQESGPGLVKPSQTLSLTCTVSGFSLTSHPEGVNWIRQPPGKGLEWIGYIAHSGTTDYNPSLKSRVTMSVDTSKNQFSLKVNSVTAADTAVYYCARAYGDSDAFDIWGQGTMVTVSSSGGSTITSYNVYYTKLSSSGTEIVMTQSPATLSLSPGERATLSCRASQSIGRNLAWYQQKPGQAPRLLIYGASKRVTGIPARFSGSGSGTDFTLTISSLEPEDFAVYYCQQYSTWPTFGGGTKVEIK
8 | binds | Lib4_P2_D1_scFv (scFv, not shown: small tags and cut ends) scFv: QVQLVQSGAEVKKPGASVKVSCKVSGDTLSNYAIHWVRQAPGKGLEWMGGINPNAGTTIYAQKFQGRVTMTEDTSTDTAYMELSSLKSEDTAVYYCARDSSSWCPVGYYYYYMDVWGKGTTVTVSSSGGSTITSYNVYYTKLSSSGTDIQMTQSPSSVSASVGDRVTITCRASQSIGDFLAWYQQKPGKAPKLLIYDASHLQTGVPSRFSGSGSGTDFTLTISSLQPEDFANYYCQQTSTIPPTFGGGTKVEIK
9 | binds | Lib1_P1_A5_scFv (scFv, not shown: small tags and cut ends) scFv: QVQLVQSGAEVKKPGASVKVSCKVSGDTLSNYAIHWVRQAPGKGLEWMGGINPNAGTTIYAQKFQGRVTMTEDTSTDTAYMELSSLKSEDTAVYYCARDSSSWCPVGYYYYYMDVWGKGTTVTVSSSGGSTITSYNVYYTKLSSSGTDIQMTQSPSSVSASVGDRVTITCRASQSIGDFLAWYQQKPGKAPKLLIYDASHLQTGVPSRFSGSGSGTDFTLTISSLQPEDFANYYCQQTSTIPPTFGGGTKVEIK
10 | binds | 9312_Lib8_scFv (scFv, not shown: small tags and cut ends) scFv: EVQLVESGGGLVQPGRSLRLSCAASGFSLSTYDMHWVRQAPGKGLEWVSAISSSGDTRDYADSVEGRFTISRDNAKNSLYLQMNSLRAEDTAVYYCARAFWGGDAFDIWGQGTMVTVSSSGGSTITSYNVYYTKLSSSGTDIQMTQSPSSLSASVGDRVTITCRASQTIGYWLAWYQQKPGKAPKLLIYGASTLEGGVPSRFSGSGSGTDFTLTISSLQPEDVATYYCQHSYSAPPTFGGGTKVEIK
11 | binds | Lib4_P2_A11_scFv (scFv, not shown: small tags and cut ends, also called Lib4_P2_All) scFv: QVQLQESGPGLVKPSQTLSLTCTVSGVTFSSYGWSWIRQPPGKGLEWIGYVDTSGSTDYNPSLKSRVTMSVDTSKNQFSLKVNSVTAADTAVYYCARTTYYYDSSGFARGWFDPWGQGTLVTVSSSGGSTITSYNVYYTKLSSSGTEIVMTQSPATLSLSPGERATLSCRASRSISTNLAWYQRKPGQAPRLLIYDTSNRAPGIPARFSGSGSGTDFTLTISSLEPEDFAVYYCLQYDVSPYTFGGGTKVEIK
12 | binds | 7046_Lib8_scFv (scFv, not shown: small tags and cut ends) scFv: EVQLVESGGGLVQPGRSLRLSCAASGFNFHNYDMHWVRQAPGKGLEWVSAISGSGYTADYADSVEGRFTISRDNAKNSLYLQMNSLRAEDTAVYYCAKSHSSGWSSAFDIWGQGTMVTVSSSGGSTITSYNVYYTKLSSSGTDIQMTQSPSSLSASVGDRVTITCRASQTIGYWLAWYQQKPGKAPKLLIYDATNLATGVPSRFSGSGSGTDFTLTISSLQPEDVATYYCQHYNPYSQVTFGGGTKVEIK
13 | binds | 69_Lib8_scFv (scFv, not shown: small tags and cut ends) scFv: EVQLVESGGGLVQPGRSLRLSCAASAFTFSNYDMHWVRQAPGKGLEWVSAISGSGDTSDYADSVEGRFTISRDNAKNSLYLQMNSLRAEDTAVYYCVRASWYGTFFDYWGQGTLVTVSSSGGSTITSYNVYYTKLSSSGTDIQMTQSPSSLSASVGDRVTITCRASQSVSGWLAWYQQKPGKAPKLLIYGTSTLQSGVPSRFSGSGSGTDFTLTISSLQPEDVATYYCQQSYSAPYTFGGGTKVEIK
